We go through one molecule from US20230140224A1 (APRILBIO, published 2023).

The assay deals with T1, human serum albumin (human, UniProt P02768 25-609).
T1 construct: also called HSA; human albumin
The assay is described as follows: ELISA, albumin coated on plate, Fab in solution. (An ELISA detects its analyte on a solid surface through an enzyme-linked reagent.)

T1 sequence (P02768 25-609 limits assumed): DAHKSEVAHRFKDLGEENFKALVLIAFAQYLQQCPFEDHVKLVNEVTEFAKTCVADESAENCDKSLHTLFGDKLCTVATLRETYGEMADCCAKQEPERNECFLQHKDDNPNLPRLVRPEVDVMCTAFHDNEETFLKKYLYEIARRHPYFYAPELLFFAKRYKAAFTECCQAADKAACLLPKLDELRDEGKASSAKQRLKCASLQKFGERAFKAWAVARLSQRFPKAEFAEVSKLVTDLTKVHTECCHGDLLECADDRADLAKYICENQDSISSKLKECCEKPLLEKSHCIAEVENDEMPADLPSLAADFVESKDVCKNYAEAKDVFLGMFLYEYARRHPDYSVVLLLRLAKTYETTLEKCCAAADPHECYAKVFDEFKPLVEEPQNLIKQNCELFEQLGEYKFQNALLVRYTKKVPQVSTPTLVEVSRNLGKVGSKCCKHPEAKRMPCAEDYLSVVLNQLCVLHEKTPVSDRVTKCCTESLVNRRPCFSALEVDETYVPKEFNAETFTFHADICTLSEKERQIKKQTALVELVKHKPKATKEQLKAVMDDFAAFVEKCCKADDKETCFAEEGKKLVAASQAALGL

B1: FL335 Fab antibody fragment (Fab, V domains shown)
VH: QVQLVQSGGGPVKPGGSLRLSCAASGFMFRAYSMNWVRQAPGKGLEWVSSISSSGRYIHYADSVKGRFTISRDNAKNSLYLQMNSLRAEDTAVYYCARETVMAGKALDYWGQGTLVTVSS
VL: DIVLTQSPGTLSLSPGETATLSCRASQSVGSNLAWYQQKPGQAPRLLIYGASTGATGVPARFSGSRSGTDFTLTITSLQPEDFATYYCQQYYSFLAKTFGQGTQLEIKR
notes: also called FL355 Fab antibody fragment; feline chimeric antibody fragment
For the molecule B1, the binding result is reported as “binds”.
